Experimental findings from patent US20100255012A1 (Genmab, published 2010) are described below.

One data set deals with T1, human C1q (human, UniProt P02745 23-245; P02746 28-253; P02747 29-245).
T1 construct: Bought human C1q; also called first component of the classical complement cascade
The data set can be described thus: ELISA, antibody coated, bound C1q detected with rabbit anti-human C1q. The protocol: In short, microtiter ELISA plates (Greiner, Germany) were coated overnight at RT with the test antibodies serially diluted from 10 μg/ml to 0.06 μg/ml in PBS. Plates were emptied and wells were blocked with 200 μl ELISA-diluent per well (0.1 M NaPO₄, 0.1 M NaCl, 0.1% gelatin and 0.05% Tween-20), at RT for 30 minutes. […] After washing the plates (3×) with PBST, wells were incubated with HRP-conjugated swine anti-rabbit IgG-Fc (DAKO, P0300, lot #069) diluted in ELISA diluent (1:2500, 100 μl/well, RT, 1 hour). Thereafter, plates were washed thrice and assays were developed with freshly prepared 1 mg/ml ABTS solution (ABTS: 2,2′-azino-bis[3-ethylbenzthiazoline-6-sulfonic acid]); 2 tablets of 5 mg in 10 ml ABTS buffer, Boehringer Mannheim, Ingelheim, Germany) at RT in the dark for 30 minutes. Absorbance was measured at 405 nm in an ELISA plate reader (Biotek Instruments Inc., Winooski, USA).

Data set [1] concerns the molecule itself. The data set can be described thus: gel filtration on Superdex 200 (eluted at about 70 kD); self-association of half-molecules.
Description: Samples (100 μl) were applied to a Superdex 200 HR 10/30 column (Amersham Biosciences, Uppsala, Sweden), which was connected to a HPLC system (ÄKTA explorer) from Amersham Biosciences, Uppsala, Sweden. The column was first equilibrated in PBS. Fractions of 250 μl were collected, in which Bet v 1 specific IgG was measured using the antigen binding assay.
To test the antigen binding of the Bet v 1 specific antibodies, a sample of diluted antibody was incubated overnight at room temperature with 0.75 mg Protein-G sepharose (Amersham Biosciences, Uppsala, Sweden) in 750 μl PBS/AT (PBS supplemented with 0.3% BSA, 0.1% Tween-20, 0.05% NaN3) together with 50 μl diluted ¹²⁵I-labelled Bet v 1 or ¹²⁵I-labelled Fel d 1. […] After washing the Sepharose suspension with PBS-T (PBS supplemented with 0.1% Tween-20), the bound radioactivity was measured. The results were expressed as the amount of radioactivity relative to the amount added.

T1 sequence (P02745 23-245 limits assumed, chain 1 of 3): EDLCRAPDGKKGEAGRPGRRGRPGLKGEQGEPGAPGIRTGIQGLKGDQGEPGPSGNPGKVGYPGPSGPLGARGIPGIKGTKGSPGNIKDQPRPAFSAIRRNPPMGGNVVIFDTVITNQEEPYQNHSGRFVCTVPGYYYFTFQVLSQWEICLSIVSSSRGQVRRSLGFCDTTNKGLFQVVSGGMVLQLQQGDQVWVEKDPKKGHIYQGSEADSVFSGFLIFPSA
T1 sequence (P02746 28-253 limits assumed, chain 2 of 3): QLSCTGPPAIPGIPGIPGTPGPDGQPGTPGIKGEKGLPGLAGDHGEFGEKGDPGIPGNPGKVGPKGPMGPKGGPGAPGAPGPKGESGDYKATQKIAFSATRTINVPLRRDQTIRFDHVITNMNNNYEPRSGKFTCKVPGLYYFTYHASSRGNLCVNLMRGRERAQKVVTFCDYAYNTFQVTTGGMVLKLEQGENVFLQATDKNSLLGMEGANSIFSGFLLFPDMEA
T1 sequence (P02747 29-245 limits assumed, chain 3 of 3): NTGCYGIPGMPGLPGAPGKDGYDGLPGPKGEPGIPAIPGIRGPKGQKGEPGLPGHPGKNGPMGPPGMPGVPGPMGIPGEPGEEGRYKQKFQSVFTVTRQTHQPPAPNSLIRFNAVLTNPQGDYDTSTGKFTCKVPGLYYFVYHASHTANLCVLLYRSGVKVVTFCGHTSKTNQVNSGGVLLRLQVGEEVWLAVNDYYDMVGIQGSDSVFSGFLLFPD

B1: 7D8-HG (antibody)
heavy: EVQLVESGGGLVQPDRSLRLSCAASGFTFHDYAMHWVRQAPGKGLEWVSTISWNSGTIGYADSVKGRFTISRDNAKNSLYLQMNSLRAEDTALYYCAKDIQYGNYYYGMDVWGQGTTVTVSSASTKGPSVFPLAPCSRSTSESTAALGCLVKDYFPEPVTVSWNSGALTSGVHTFPAVLQSSGLYSLSSVVTVPSSSLGTKTYTCNVDHKPSNTKVDKRVAPEFLGGPSVFLFPPKPKDTLMISRTPEVTCVVVDVSQEDPEVQFNWYVDGVEVHNAKTKPREEQFNSTYRVVSVLTVLHQDWLNGKEYKCKVSNKGLPSSIEKTISKAKGQPREPQVYTLPPSQEEMTKNQVSLTCLVKGFYPSDIAVEWESNGQPENNYKTTPPVLDSDGSFFLYSRLTVDKSRWQEGNVFSCSVMHEALHNHYTQKSLSLSLGK
light: not shown
notes: Half-molecule of one heavy and one light chain; also called HuMab 7D8-HG; hingeless IgG4 anti-CD20
Take B1: the binding result with human C1q is given as “no binding”.

B2: Betv1-HG (antibody, V domains shown)
VH: EVQLQQSGAELVKPGASVKLSCTASGFNIKDTYIHWVKQRPEQGLEWVGRIDPATGNTRYDPKFQGKATITADTSSNTAYLQLSSLTSEDTAVYYCASFRPGYALDYWGQGTSVTVSS
VL: DIVMTQSHKFMSTSVGDRVSFTCKASQDVFTAVAWYQQKPGQSPKLLIYWASTRRTGVPDRFTGSGSGTDYTLTISSVQAEDLALYYCQQHFSTPPTFGGGTKLEIKR
notes: Half-molecule of one heavy and one light chain; also called anti-Betv1-HG; hingeless IgG4 anti-Bet v 1
As to B2, the binding result in data set [1] is “no binding”.
